Paper doi:10.1101/2020.12.31.424729 (bioRxiv, 2020)

B1: DH1047 Fab (Fab, V domains shown)
VH: QVQLVQSGAEVKKPGASVQVSCQASANTFTNHYIHWVRQAPGQGLEWMGIIYPTGGNTIYAQGFQGRVTMTRDTSLNTIYLELSSLRSEDTAVYYCARDVRVDDSWSGYDLLSGGTYFDYWGQGTLVTVSS
VL: not shown
B2: DH1041 Fab (Fab, V domains shown)
VH: EVQLVESGGGLVQPGGSLRLSCAASGVTFSSYWMSWVRQAPGKGLEWVANIRQDGSEKYSVDSVKGRFTISRDNAKNSLYLQMNSLRAEDTAVYYCARARRADNSGYYGFHFDCWGQGTLVTVSS
VL: QSVLTQPPSVSGAPGQRVTISCTGSSSNIGAGYDVHWYQQLPGTAPKLLIYGNNNRPSGVPDRFSDSKSGTSASLAITRLQAEDEADYYCQSYDSSLSGWVFGGGTKLTVL

Molecular target: SARS-CoV-2 Spike ectodomain trimer stabilized with 2 proline mutations (S-2P) (SARS-CoV-2, Wuhan-Hu-1, stabilised)
Test: cryo-EM structure

Binder | stoichiometry N [Fabs per S-2P trimer]
B1 | 3
B2 | 3
